# Data: patent US20090226946
# T1: S5a, P55036
# T1 chain: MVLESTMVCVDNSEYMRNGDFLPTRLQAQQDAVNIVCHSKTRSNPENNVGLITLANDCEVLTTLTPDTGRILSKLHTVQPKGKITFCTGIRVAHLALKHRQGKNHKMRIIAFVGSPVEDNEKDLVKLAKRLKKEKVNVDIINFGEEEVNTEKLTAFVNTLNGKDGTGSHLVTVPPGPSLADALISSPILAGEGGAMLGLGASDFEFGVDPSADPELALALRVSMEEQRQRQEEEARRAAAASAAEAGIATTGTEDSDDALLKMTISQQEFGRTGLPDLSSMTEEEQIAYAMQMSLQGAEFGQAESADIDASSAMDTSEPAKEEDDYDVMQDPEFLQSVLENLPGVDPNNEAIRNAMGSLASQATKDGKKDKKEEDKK
# Molecular target: T1, S5a, P55036
row,Protein,"Ubiquitinated S5a? (in vitro ubiquitination assay, Western blot with anti-S5a)"
1,GST-Murf1 (protein) MDYKSSLIQDGNPMENLEKQLICPICLEMFTKPVVILPCQHNLCRKCANDIFQAANPYWTSRGSSVSMSGGRFRCPTCRHEVIMDRHGVYGLQRNLLVENIIDIYKQECSSRPLQKGSHPMCKEHEDEKINIYCLTCEVPTCSMCKVFGIHKACEVAPLQSVFQGQKTELNNCISMLVAGNDRVQTIITQLEDSRRVTKENSHQVKEELSQKFDTLYAILDEKKSELLQRITQEQEKKLSFIEALIQQYQEQLDKSTKLVETAIQSLDEPGGATFLLTAKQLIKSIVEASKGCQLGKTEQGFENMDFFTLDLEHIADALRAIDFGTDEEEEEFIEEEDQEEEESTEGKEEGHQ,Yes
2,GST-E6AP (protein) MEKLHQCYWKSGEPQSDDIEASRMKRAAAKHLIERYYHQLTEGCGNEACTNEFCASCPTFLRMDNNAAAIKALELYKINAKLCDPHPSKKGASSAYLENSKGAPNNSCSEIKMNKKGARIDFKDVTYLTEEKVYEILELCREREDYSPLIRVIGRVFSSAEALVQSFRKVKQHTKEELKSLQAKDEDKDEDEKEKAACSAAAMEEDSEASSSRIGDSSQGDNNLQKLGPDDVSVDIDAIRRVYTRLLSNEKIETAFLNALVYLSPNVECDLTYHNVYSRDPNYLNLFIIVMENRNLHSPEYLEMALPLFCKAMSKLPLAAQGKLIRLWSKYNADQIRRMMETFQQLITYKVISNEFNSRNLVNDDDAIVAASKCLKMVYYANVVGGEVDTNHNEEDDEEPIPESSELTLQELLGEERRNKKGPRVDPLETELGVKTLDCRKPLIPFEEFINEPLNEVLEMDKDYTFFKVETENKFSFMTCPFILNAVTKNLGLYYDNRIRMYSERRITVLYSLVQGQQLNPYLRLKVRRDHIIDDALVRLEMIAMENPADLKKQLYVEFEGEQGVDEGGVSKEFFQLVVEEIFNPDIGMFTYDESTKLFWFNPSSFETEGQFTLIGIVLGLAIYNNCILDVHFPMVVYRKLMGKKGTFRDLGDSHPVLYQSLKDLLEYEGNVEDDMMITFQISQTDLFGNPMMYDLKENGDKIPITNENRKEFVNLYSDYILNKSVEKQFKAFRRGFHMVTNESPLKYLFRPEEIELLICGSRNLDFQALEETTEYDGGYTRDSVLIREFWEIVHSFTDEQKRLFLQFTTGTDRAPVGGLGKLKMIIAKNGPDTERLPTSHTCFNVLLLPEYSSKEKLKERLLKAITYAKGFGML,Yes
3,GST-Nedd4 (protein) MATCAVEVFGLLEDEENSRIVRVRVIAGIGLAKKDILGASDPYVRVTLYDPMNGVLTSVQTKTIKKSLNPKWNEEILFRVHPQQHRLLFEVFDENRLTRDDFLGQVDVPLYPLPTENPRLERPYTFKDFVLHPRSHKSRVKGYLRLKMTYLPKTSGSEDDNAEQAEELEPGWVVLDQPDAACHLQQQQEPSPLPPGWEERQDILGRTYYVNHESRRTQWKRPTPQDNLTDAENGNIQLQAQRAFTTRRQISEETESVDNRESSENWEIIREDEATMYSNQAFPSPPPSSNLDVPTHLAEELNARLTIFGNSAVSQPASSSNHSSRRGSLQAYTFEEQPTLPVLLPTSSGLPPGWEEKQDERGRSYYVDHNSRTTTWTKPTVQATVETSQLTSSQSSAGPQSQASTSDSGQQVTQPSEIEQGFLPKGWEVRHAPNGRPFFIDHNTKTTTWEDPRLKIPAHLRGKTSLDTSNDLGPLPPGWEERTHTDGRIFYINHNIKRTQWEDPRLENVAITGPAVPYSRDYKRKYEFFRRKLKKQNDIPNKFEMKLRRATVLEDSYRRIMGVKRADFLKARLWIEFDGEKGLDYGGVAREWFFLISKEMFNPYYGLFEYSATDNYTLQINPNSGLCNEDHLSYFKFIGRVAGMAVYHGKLLDGFFIRPFYKMMLHKPITLHDMESVDSEYYNSLRWILENDPTELDLRFIIDEELFGQTHQHELKNGGSEIVVTNKNKKEYIYLVIQWRFVNRIQKQMAAFKEGFFELIPQDLIKIFDENELELLMCGLGDVDVNDWREHTKYKNGYSANHQVIQWFWKAVLMMDSEKRIRLLQFVTGTSRVPMNGFAELYGSNGPQSFTVEQWGTPEKLPRAHTCFNRLDLPPYESFEELWDKLQMAIENTQGFDGVD,Yes
4,His-CHIP (protein) MKGKEEKEGGARLGAGGGSPEKSPSAQELKEQGNRLFVGRKYPEAAACYGRAITRNPLVAVYYTNRALCYLKMQQHEQALADCRRALELDGQSVKAHFFLGQCQLEMESYDEAIANLQRAYSLAKEQRLNFGDDIPSALRIAKKKRWNSIEERRIHQESELHSYLSRLIAAERERELEECQRNHEGDEDDSHVRAQQACIEAKHDKYMADMDELFSQVDEKRKKRDIPDYLCGKISFELMREPCITPSGITYDRKDIEEHLQRVGHFDPVTRSPLTQEQLIPNLAMKEVIDAFISENGWVEDY,Yes
5,GST-Siah2 (protein) MSRPSSTGPSANKPCSKQPPPQPQHTPSPAAPPAAATISAAGPGSSAVPAAAAVISGPGGGGGAGPVSPQHHELTSLFECPVCFDYVLPPILQCQAGHLVCNQCRQKLSCCPTCRGALTPSIRNLAMEKVASAVLFPCKYATTGCSLTLHHTEKPEHEDICEYRPYSCPCPGASCKWQGSLEAVMSHLMHAHKSITTLQGEDIVFLATDINLPGAVDWVMMQSCFGHHFMLVLEKQEKYEGHQQFFAIVLLIGTRKQAENFAYRLELNGNRRRLTWEATPRSIHDGVAAAIMNSDCLVFDTAIAHLFADNGNLGINVTISTCCP,Yes (low)
